Laboratory results reported in the supplement of paper PMC10126150.
± gives the standard deviation of the averaged measurements.

System: ATP
Assay: switch fluorescence ratio, 500 uM ATP over buffer (Cy3 cluster intensity, sum of 5 cycles each) (fold (ratio)); higher = stronger signal-on switching upon ATP binding; sequences stand for … in TCGTCGGCAGCGTCAGATGTGTATAAGAGACAGTTTTTTTTTTTTTTTTTTTTTTTTT…TC
Details: aptamer strand: ATP DNA aptamer (quencher-CACCTGGGGGAGTATTGCGGAGGAAGG + anchor), 100 nM annealed; ATP concentration: 500 uM
Summary of the method: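 Five buffer/ATP imaging cycles were run on Cy3-labelled switching-strand clusters on a modified Illumina MiSeq flow-cell, with NaOH stripping and re-annealing between cycles. In each cycle, clusters annealed to 100 nM quencher-labelled ATP aptamer were imaged in selection buffer, then after 15 min with 500 uM ATP at 22 °C. Per cluster, the fluorescence ratio is summed target-cycle over summed buffer-cycle Cy3 intensity, averaged per switch-domain sequence. Only clusters within 100-1000 RFU were kept.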
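Further: ATP exposure 15 min at 22 °C before imaging.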

Sequence | switch fluorescence ratio
TAATGCAATT | 1.018 ± 0.0064
TAATGCCTGC | 1 ± 0.093
TAATGCGGTT | 1.016 ± 0.004
TAATGCTGTT | 0.997 ± 0.049
TAATGGAAGG | 1 ± 0.024
TAATGGAGGC | 1.05 ± 0.13
TAATGGATGG | 0.966 ± 0.019
TAATGGGGGA | 1.01 ± 0.016
TAATGGGGGG | 0.989 ± 0.037
TAATGTATGA | 0.972 ± 0.04
TAATGTGTCG | 1.021 ± 0.0042
TAATGTTTCG | 0.978 ± 0.013
TAATGTTTTG | 1.01 ± 0.018
TAATTAGAGG | 1.01 ± 0.027
TAATTAGCGC | 1.03 ± 0.016
TAATTAGCGG | 1.01 ± 0.018
TAATTAGGGA | 0.986 ± 0.044
TAATTCAATG | 0.997 ± 0.066
TAATTGCTCG | 1.062 ± 0.0041
TAATTGGTGT | 1.02 ± 0.043
TAATTGTGTG | 1 ± 0.038
TAATTTAAAA | 1.05 ± 0.12
TAATTTATCG | 1.04 ± 0.038
TAATTTATTT | 1.03 ± 0.029
TAATTTCCGG | 0.994 ± 0.029
TAATTTGAAA | 1.03 ± 0.07

Sequence | switch fluorescence ratio
TAATTTGGTG | 1.043 ± 0.0083
TAATTTGTTT | 1.03 ± 0.025
TAATTTTCGT | 1.02 ± 0.03
TAATTTTGCG | 1 ± 0.015
TAATTTTGGG | 0.999 ± 0.047
TAATTTTTGG | 0.992 ± 0.023
TAATTTTTTA | 0.976 ± 0.03
TACAAAAAAT | 1.03 ± 0.047
TACAAAAGGT | 1.07 ± 0.094
TACAAGGGTG | 1.1 ± 0.03
TACAAGTCGT | 0.98 ± 0.012
TACACATTTT | 1.07 ± 0.026
TACACCCTTC | 1.183 ± 0.011
TACACTGGGT | 0.999 ± 0.022
TACACTTGTA | 1.03 ± 0.057
TACAGAATGA | 1.003 ± 0.0041
TACAGACTGT | 1.04 ± 0.021
TACAGAGGG | 0.966 ± 0.06
TACAGCAGGG | 1.04 ± 0.012
TACAGCAGTG | 1.02 ± 0.023
TACAGCTTTT | 1.01 ± 0.031
TACAGGGGTC | 1.06 ± 0.019
TACAGGTATC | 0.9796 ± 0.0048
TACAGGTTTC | 1 ± 0.023
TACAGTCTGG | 1.007 ± 0.0066
TACAGTGAGC | 1.026 ± 0.0019

Sequence | switch fluorescence ratio
TACATCGTCC | 1.05 ± 0.024
TACATGAGTA | 1.03 ± 0.023
TACATGCTGC | 1.03 ± 0.022
TACATGTCGT | 0.996 ± 0.018
TACATTATAG | 1.01 ± 0.036
TACATTGTGC | 1.01 ± 0.015
TACATTTAGG | 0.9964 ± 0.0092
TACCAGCATT | 1.1 ± 0.051
TACCAGGCGG | 1.04 ± 0.037
TACCAGTGAT | 1 ± 0.018
TACCATCTTG | 0.997 ± 0.037
TACCATGAAT | 1.01 ± 0.045
TACCATGGTA | 0.987 ± 0.035
TACCCTTGCC | 1.22 ± 0.25
TACCCTTGGG | 0.9937 ± 0.0072
TACCCTTTTT | 1.01 ± 0.054
TACCGAAGGG | 0.989 ± 0.028
TACCGGGGGT | 1.63 ± 0.83
TACCGTAAAC | 1.8 ± 0.7
TACCGTGTCC | 1.11 ± 0.06
TACCGTTTTT | 1.01 ± 0.045
TACCTAGTGC | 1.035 ± 0.0016
TACCTGCGAA | 2.07 ± 1.3
TACGAGACGG | 1.095 ± 0.0059
TACGAGCTGG | 0.995 ± 0.01
TACGAGTTAA | 0.97 ± 0.015

Sequence | switch fluorescence ratio
TACGAGTTTT | 0.996 ± 0.01
TACGATATAC | 3.09 ± 0.34
TACGATGCGG | 1.07 ± 0.038
TACGATGTGC | 1.0053 ± 0.00075
TACGCAGAAT | 3.38 ± 3.2
TACGCGGGGG | 1.019 ± 0.0098
TACGCGGTTG | 1.07 ± 0.044
TACGCGTGGG | 1.004 ± 0.0084
TACGGAACGG | 1.07 ± 0.029
TACGGAGATT | 1.01 ± 0.035
TACGGATACT | 1.27 ± 0.026
TACGGATTGT | 0.988 ± 0.027
TACGGGAGGG | 1.07 ± 0.022
TACGGGCGTC | 1 ± 0.028
TACGGGGCGA | 1.07 ± 0.036
TACGGGGGAC | 1.07 ± 0.047
TACGGGGGTA | 1.02 ± 0.036
TACGGGGGTG | 1.01 ± 0.042
TACGGGGTCA | 0.971 ± 0.03
TACGGTAGCC | 1.043 ± 0.0061
TACGGTCCTG | 0.99156 ± 0.00092
TACGTAACTC | 1.28 ± 0.028
TACGTATGAA | 1.17 ± 0.014
TACGTATTTA | 1.13 ± 0.0012
TACGTATTTT | 1.023 ± 0.0035
TACGTCACGA | 1.42 ± 0.19

Sequence | switch fluorescence ratio
TACGTCCCGG | 1.08 ± 0.014
TACGTCTTGG | 1.04 ± 0.033
TACGTGCTTG | 0.989 ± 0.03
TACGTGGGTG | 1.05 ± 0.02
TACGTGTAGC | 1.01 ± 0.011
TACGTGTTTG | 1.01 ± 0.033
TACTACTTAT | 1.04 ± 0.053
TACTAGGCG | 1.014 ± 0.0083
TACTAGTTGG | 0.997 ± 0.011
TACTCATGGG | 1.01 ± 0.035
TACTCGAGGG | 1.08 ± 0.031
TACTCGGATT | 0.996 ± 0.015
TACTCGGGAA | 3.05 ± 2
TACTGACTTG | 0.989 ± 0.014
TACTGGCCGG | 1.03 ± 0.029
TACTGGGGTT | 0.981 ± 0.031
TACTGGTGAC | 1.06 ± 0.012
TACTGGTTGG | 1 ± 0.021
TACTGTAGGG | 1.12 ± 0.029
TACTGTGAGC | 1.016 ± 0.0076
TACTGTGGGG | 1.009 ± 0.0094
TACTTAGTTT | 1.01 ± 0.077
TACTTATGGA | 0.984 ± 0.043
TACTTCATTC | 1.037 ± 0.0095
TACTTGAGTT | 1.05 ± 0.012
TACTTGTGTT | 1.02 ± 0.046

Sequence | switch fluorescence ratio
TACTTTGGGG | 0.989 ± 0.022
TACTTTTCGT | 0.995 ± 0.024
TACTTTTGCT | 0.9669 ± 0.0014
TAGAAAAAGA | 0.988 ± 0.016
TAGAAAAGAG | 1.01 ± 0.024
TAGAAAAGGC | 1.15 ± 0.21
TAGAAACTTT | 1.1 ± 0.14
TAGAAATGCG | 1.038 ± 0.0038
TAGAACCGGG | 1.09 ± 0.024
TAGAAGGGGT | 0.969 ± 0.047
TAGAAGGGTT | 1 ± 0.024
TAGAATCCGG | 0.979 ± 0.011
TAGAATCGGG | 0.9758 ± 0.0078
TAGACAGTTT | 0.993 ± 0.023
TAGACCAAAA | 1.02 ± 0.017
TAGACCGGAG | 1.04 ± 0.014
TAGACGGAAG | 1.052 ± 0.00072
TAGACGGGCA | 1.01 ± 0.015
TAGAGAAGTT | 1 ± 0.015
TAGAGAATTT | 0.984 ± 0.02
TAGAGATCTA | 1.011 ± 0.0016
TAGAGCATTG | 1 ± 0.044
TAGAGGCAGG | 0.985 ± 0.018
